± gives the uncertainty stated by the source.
Test: protein stability index of a GFP-peptide fusion (yeast GPS) (PSI 1-4); higher = more stable; sorted into four equal gates, so the index is relative within each strain
Method in brief: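 Tiled yeast protein peptides of 17 residues were each joined downstream of GFP, on plasmids that also express Cherry. The pooled library was maintained in yeast, and mid-log cultures in leucine-free medium were sorted into four equal gates on the GFP/Cherry ratio. Plasmids from every gate were amplified by PCR and sequenced on Illumina, with barcodes linking reads to strains. The protein stability index of a peptide is its gate-number-weighted read frequency summed over the gates.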

Sequence	protein stability index (doa10∆)	protein stability index (pdr5∆)	protein stability index (san1∆)	protein stability index (ubr1∆)
GSLTFLDNKGSGEDAEE [YIL149C/MLP2]	3.48 ± 0.27	3.22 ± 0.12	3.56 ± 0.12	3.46 ± 0.071
EEEDSILSLEQSSRVVS [YCS4]	3.11 ± 0.12	3.24 ± 0.08	3.19 ± 0.062	3.06 ± 0.086
DFITGSYLISHKDSFYD [RPO31]	2.02 ± 0.066	1.94 ± 0.049	2.13 ± 0.064	1.83 ± 0.045
INTLNGGSSDTADKIRI [GAL11]	2.34 ± 0.098	2.02 ± 0.088	1.27 ± 0.094	1.4 ± 0.066
SKFNNADDVFTGTGLQD [RPC31]	3.35 ± 0.1	3.38 ± 0.091	3.12 ± 0.056	3.17 ± 0.066
RTFRLNECVCTPYNADF [RPO31]	2.25 ± 0.045	2.4 ± 0.049	2.77 ± 0.054	2.28 ± 0.065
RSDSYMLHKVLENKADP [RPT6]	2.65 ± 0.1	2.99 ± 0.1	2.93 ± 0.056	2.83 ± 0.091
DQYDAERDFYHSLREYI [RPO31]	3.33 ± 0.076	3 ± 0.12	3.07 ± 0.074	3.3 ± 0.091
NDNEGKHISASIDNDFS [YAR002W/NUP60]	3.05 ± 0.089	3.04 ± 0.071	3.19 ± 0.099	2.92 ± 0.067
FKYIYELILAGAIDEAL [YDL116W/NUP84]	1.6 ± 0.074	1.5 ± 0.073	1.44 ± 0.1	1.52 ± 0.067
EEAYDNPHDTLNRIKKY [PRP8]	3.42 ± 0.13	3.2 ± 0.093	2.27 ± 0.17	3.4 ± 0.085
DGDASKPAFSFGAKPDE [YJL041W/NSP1]	3.32 ± 0.058	3.25 ± 0.058	3.15 ± 0.036	3.42 ± 0.043
KTLHSQMMSKGIGALFT [RPC34]				3.18 ± 0.21
EVYTKTIEVLDEVITEG [POP7]	2.84 ± 0.069	3.12 ± 0.064	3.15 ± 0.053	3.03 ± 0.067
KQRFQGCNNLIKNISNR [ARP9]	2.89 ± 0.07	2.88 ± 0.048	3.26 ± 0.063	3.03 ± 0.048
DAPFNKVVLKALFLSKI [RPL18A]	1.55 ± 0.1	1.56 ± 0.074	1.25 ± 0.13	1.32 ± 0.067
SVEEVILERAYKKLDID [SNF2]	3.23 ± 0.16	3.07 ± 0.24	2.95 ± 0.13	
KFQLKKVLCLAVAVGNV [RPL1A]	1.63 ± 0.047	1.25 ± 0.051	1.27 ± 0.09	1.15 ± 0.033
VNLSEVMTVPGIDPTRI [RPO21]	2.92 ± 0.083	3.07 ± 0.094	3.11 ± 0.05	3.05 ± 0.064
TNVRLYSLLLASKGIDR [ECM29]	2.13 ± 0.048	2.79 ± 0.087	3.48 ± 0.088	3.33 ± 0.069
RLPHQFRPIEIFTDFLP [RRP42]	1.86 ± 0.068	1.96 ± 0.07	2.03 ± 0.078	2.21 ± 0.066
TGPFKVNGVPLRRVNAR [RPL6B]	2.26 ± 0.13	2.49 ± 0.099	2.56 ± 0.095	2.72 ± 0.061
GSLNATNFSPTPANNGE [SNF2]	2.93 ± 0.055	3.07 ± 0.061	2.76 ± 0.049	3.04 ± 0.051
IFFNIPLVAHLGLYVGV [YJL039C/NUP192]	1.42 ± 0.044	1.4 ± 0.059	1.27 ± 0.1	1.33 ± 0.048
VLYYRDARSSRNFSLAI [PRE4]	2.85 ± 0.14	2.63 ± 0.12	1.99 ± 0.15	2.39 ± 0.085
NKPAIKEDSTIQDSNGD [SWI3]	2.92 ± 0.076	3.05 ± 0.073	3.14 ± 0.06	3.04 ± 0.054

Sequence	protein stability index (doa10∆)	protein stability index (pdr5∆)	protein stability index (san1∆)	protein stability index (ubr1∆)
RYSRQFINNVLSNPSNQ [GRR1]	2.28 ± 0.08	2.45 ± 0.082	1.91 ± 0.1	2.07 ± 0.076
ADLRPLQIKSIREIDVT [RPS7B]		2.72 ± 0.26	2.53 ± 0.23	2.88 ± 0.1
GKICLILTRLNGILPDD [SSN2]	3.12 ± 0.21			3.5 ± 0.15
IVVAMTGKDCVAIACDL [PUP3]	1.38 ± 0.062	1.47 ± 0.07	2.08 ± 0.066	2.31 ± 0.046
LGNVIVPNILSLDMNSM [NUT1]	2.16 ± 0.06	2.17 ± 0.058	2.04 ± 0.093	2.27 ± 0.051
VSVLLISKDCSAFACKT [BRR2]	1.96 ± 0.052	2.27 ± 0.042	2.21 ± 0.064	2.17 ± 0.049
SSNQSAPVETKKKRFEI [HRT1]	3.18 ± 0.065	3.3 ± 0.079	3.08 ± 0.069	3.27 ± 0.07
AKEKERMLEEAIDHLKA [YIL149C/MLP2]	3.03 ± 0.05	3.12 ± 0.054	3.16 ± 0.056	3.01 ± 0.049
GAQFSRSYDLTRHQNTI [RPN4]	1.16 ± 0.12	1.67 ± 0.11	1.85 ± 0.18	2.53 ± 0.099
AVFKIVLQPLLPRELPK [SNU114]	2.05 ± 0.083	1.76 ± 0.091	2.05 ± 0.095	2.18 ± 0.074
IRDNKLVSEKIINSTAL [RPC82]	3.24 ± 0.2	3.24 ± 0.12	2.99 ± 0.19	3.14 ± 0.11
VLGTPDQKIWPYLEKYP [SSN3]	2.42 ± 0.077	1.72 ± 0.053	2.3 ± 0.068	2.13 ± 0.059
QNIETRQLANLIPFIVK [NUT1]	1.61 ± 0.054	1.58 ± 0.041	1.41 ± 0.086	1.63 ± 0.039
PRFNRENKVSPADAAKK [RPS26A]	3.45 ± 0.18	2.73 ± 0.17	2.98 ± 0.075	2.89 ± 0.12
FSSNLSYANHLEESDVE [YOR098C/NUP1]	2.45 ± 0.087	2.22 ± 0.059	1.91 ± 0.082	1.89 ± 0.052
AIKDKLEQDLHFENAKV [YIL149C/MLP2]	3.09 ± 0.066	3.29 ± 0.075	3.35 ± 0.069	3.16 ± 0.079
GSMFSGDNTSDVDMEDR [RRI1]	2.01 ± 0.14	2.55 ± 0.074	2.51 ± 0.12	2.85 ± 0.16
DLPETGFFENIETEFLL [IRR1]	3.13 ± 0.075	3.18 ± 0.1	3.22 ± 0.047	3.13 ± 0.066
KAGVEAISQSLRDESLT [PRE5]	3.05 ± 0.079	3.09 ± 0.082	3.37 ± 0.082	3.07 ± 0.067
TRVEGSGGGDSEVQRTM [RPT6]	2.73 ± 0.098	2.65 ± 0.13	2.98 ± 0.087	3.19 ± 0.051
TRFEVELEFIQSLANIQ [SOH1]	2.15 ± 0.082	2.29 ± 0.061	2.14 ± 0.1	2.5 ± 0.058
LQIESVTKETVHPRKSY [PRP8]		3.02 ± 0.13	2.97 ± 0.054	3.11 ± 0.11
AQAQAQAQAQAHAQHQP [GAL11]	2.81 ± 0.029	2.926 ± 0.023	2.834 ± 0.027	3.032 ± 0.024
SRNGDFPRTRFEAQIDS [RPN10]	3.09 ± 0.12	3.28 ± 0.12	3.34 ± 0.077	3.23 ± 0.086
SNDVLKPETPKGPIIIS [SIR2]	3 ± 0.11	2.92 ± 0.077	2.78 ± 0.071	2.7 ± 0.077
IGLLNKSKSSLDGKFSL [RPN2]	2.67 ± 0.089	2.85 ± 0.15	2.5 ± 0.14	2.74 ± 0.093

From the supplement of paper PMC9732359
